Experiment: label from the status in PepcDB records
In the case of “MNPLARFLALAGFTVALASCQMFTPPEVQESGFQPSDRPITVDNVGANNKLAELAKAQHPRILATYGGEYSDPKLERMVAKVVGNLTVVSANPTQTYRITILNSPNVNAFALPGGYLYITRGLLALANDSSELAAVIAHEMGHVTANHGLQRQQLEAEEGLATKVVSDVLGDSPTAKAALIRGKLRLAQFSRNQELEADAIGIKSIGEAGYDPYAAGRFLQSMSAYTDFRSISGATDASLDFLATHPNTPQRIDLAQRHARQFGAPGVGTRDRDSFLAGIDGLLYGDTPEEGYVRGETFLHPGLGVSFTVPDGFIIDNSAAAVTATGPGDIAIRFDGVSIDKNRALTDYIRSGWVAGLDDSTVKQETINGNEAATAHAGAEGWQFDIAVIRAGGQVYRLLTAAPSASTSLETVARSVSGSFRVLSAAEKAALKPLHIRVLTVQPGQTMGSLAAQMVGVDRKLDLFRVLNALSPGAAVSAGDKVKIVTDK”, the protein production is reported as “failed”.
For “MNPSDRKDAVNPFGKLTFLVVDDFENFRLSMRQMLRSCGADKIELVAHATPAIQYCTYNHVDVVLCDYNLGEGKNGQHVLEELRHKKLLKRSSLFLMVTAETSKEMVMGAREYQPDGYLTKPINRAMLEQRLGSLIKQRNALLPITREIDRENYPEAISLCLQTLPKQPRYKTWLMKTLGELYFMVGDLAHAQKVYDDVLNQRELSWARLGRCKVLLANRNFDQAVDGLKALIEKHPDYMEAYDLLAEGLQKQGRSAQAQQVLEKAAEHSPNALLRQKHLAELAGANQDIDTASQAWRQTVSLGTYSIHDNAEHYLSLAQSLSDLSEGDLDEEGAARSSEALSVLTKMEKRFDNDETIGLKSRIVQCRLHAGQGRHREAEKILTAVSSELESLEELPADMGLDFAKTLFRMGREDQAKRILGDLASRFDNDPDTLQKIENLLDEPVGFRQKLEARSMNRDGIKAFEAGDLDAAVEAFNKALAIVPDHAALNLNLVQVLMKQYDQNPEPALLAACQQRLDHLNKLPEQHRQHRRYLALTRKLKGLTA”, the protein production was “failed”.
For “MNQAAQQSAPSRLRDRTLAAFTLMVSQPALAAIAALAALYALLAVVGGILTFSPVPFWDMWDGGLGFYVRQMTDVSQWWAQHNEHRIVLSRILFFLDYRYFDSNGAVLVVINYLLACSTFGLLAWCALQRDASRRRDGRMIAAFILCCALLWTQSNNLTWAFQSQFFLANLLPLLALVLLHASCRTRIRGNAIVFLAALTVAAMAAVSMANGVLAGGVVAAACLLGRQSWRRNLLAWAVAIAVPALYFHHYTAPAGHGSILASLRTEPLEVIKFFFAYIGSPFAHLDASGPLHLGWAILAGVVLLTAGAILAWRTIFKRHDTVDVDLVVTLFLGYLVASAFATAGSRALFGLDAAVASRYTTPGLLVLGCVLILASRNFFRDRALTMPYQIGLALMALAFLPSQLTATRPQPYLDFEWRFAALALELGVKDDKQIGWIFPDAAWAQKIAEPAANMGLGIFAKPGIYDAKLTLGGSYPTSSLQTCSLAGLENEAVDASTNDWIRLKGGLMNSILPRKISTVLLVDANNTIVGRGLLAEPKQDSPGAPFGAPFKAYLMGRAQPAVYKIVIPGFCTTTVAPKSQ”, the protein production was “failed”.
In the case of “MNQEKIADLKNWMHQEKIDFTYISDPGHIAYFSGYESEPHERVLALFIAADDQSFLFTPALEVEDAEKSSWTYPVYGYLDSENPWEKIAALLNKRTQGTPRFALEKQALSLARFDQLKTYFPASDFSHDVTPLIEKLQLIKTEPEIQRLLEAGSWADVAFEIGFKAIQAGVAEQEIVAEIEYQLKRQGIRSMSFDTLVLTGKNGASPHGVPGETKIEPHDLVLFDLGVVHNGYCSDATRTVSYLEPSDFQKEIYGIVLEAQLAATEAVKPGVTAGELDDIARGVITKAGYGEYFNHRLGHGIGTTVHEYPSLVHGNDLVIEEGMCFSIEPGIYIPGKVGVRIEDCLHVTKTGSEPFTKTTKELQIIQ”, the protein production is reported as “failed”.
In the case of “MNQPTSETRTVVVERELPHSPEKIWRALTQPHLIEAWLMKSDFEPVAGRTFSFHADWGSVDCTLLTIEPERVLSYTWAAYGLESVVTWTLTPTPGGTLLRMEQAGFRADQEQAYRGAQQGWVRFFDSLEQVVARADEDEEGRA”, the protein production is reported as “failed”.
With “MNQRDVILDCEKKLLTAIQNNDVESLEVLLHDDLLFIIPSGETVTKETDIAAYSSGKIALRAVVPSDYIIRIIHDTVVVSVNIEIKGEYMEHTLDNTFRYLRVWKLFDGNWKVIAGSCTAIG” the protein production was “not failed”.
In the case of “MNQTKTTDDNNNNSKPDETESTTTVPEWITETINGGSFHHVDLETGTNGWASPPGNVFSLRSNNYFTTKQKSPGGDYLLSLIAVDWLKSTTKKLDHILCRPDNRVIHALETSQSRSFIFAVNFQIPGKEHYHLVLYFATEKPIPSDSILHKFINIDDDSFRNERFKVVTNVVKGPWVVKATAGKLGAFLAGKVVKCSYYRGANYFEVDVDFSISAIYSALVRLTLGYVTNLVADVGFVVEAQTEEELPERLIGGGRVCYMELSSAFLVDDGKKMGAAEGNHSEDEI”, the protein production is reported as “failed”.
For “MNRLCVLGLLIGLSGSPALAAGQGESGNPPATDKERFIASLMARMSNAEKIGQLRLVSVGADHPKEALMADIRAGKVGAIFNTVTRPDIRAMQDQVRHSRLKIPLFHAYDVAHGHRTIFPISLGLAASWDPEVVARSARISALEASADGLDMSFSPMVDITRDARWGRVSEGFGEDTYLTSLLSGVMVRAYQGSNLAAPDSIMAAVKHFALYGAAEGGRDYNTVDMSLPRMFQDYLPPYKAAVDAGAGAVMVSLNTINGVPATANRWLLTDLLRQQWGFKGLTISDHGAVKELIKHGLAGNERDATRLAIQAGVDMNMNDDLYSTWLPKLLAAGEIDQADIDRACRDVLAAKYDLGLFADPYRRLGK”, the protein production was “failed”.
For “MNRLFGNGRCLDVAIDHGVCNEPSFLDGLENMPAVVKALVDARPDAIQMNYGQADLLQDLPGKDKPALVMRIDMGNPYNRIRHRDMWAVLQNEAEPLVGALQMDAACVVVNLFMLPDEPDLFRQCVQNISRVRADCEKYGMPLMIEPLVMQPVTERGGYMVDGDADKIVTLTRLAREMGADIVKADPTTNAEDFHRVVEAARCPVLVRGGGKEDLAAVFAKSTALMRQGAMGMVYGRNIYQHANPSAVVRGLMAIIHQDASGEEAVAIYRQG”, the protein production was “failed”.
For “MNRLLELSNEIFRIKTDDYTFPLFSSLHFKIILCVVITIFIAIIFKEKIKKWKYRRTFEVTTALILLSTQIFLAIWYSRFPNFYLKESLPLYPCRIAIIMAAIGLIWKKNDFAKSIAYFWGTIGAIGALMIPITNSYIFPHITYYTFFIGHYFLLIASLYLILIEEFKVKSKNVKQALIFSFIFAICAFIANYLFDANYAFLNPPNGYEILNIINVESNIITTSIFAYFIFVLGIFIMYLPFNMSDYKKDSLFECSLIKY”, the protein production was “failed”.
With “MNRPAMPFANTVPGFLPFLNDEKGLRQESQQRYLYTLRPFEAYLNRGGIALSGLEPAHISRFLEERAKTLHKAGMRDTAGALRIFLRYLHREGIVATDLVRSVPRGRIYRQASIPRALEHHHHHH” the protein production was “failed”.
With “MNRPGVLTSPGSIPLRPRRRDPSGPASARARVEARQRVGKILVVAGWIVSLAGVAIYCVTSFAAGADADLAAILIDGAIPAARAGLAVVGVGTLTWVVGSILHLNASLDAADAERDGPAEG” the protein production was “failed”.
In the case of “MNRQLLLDVLPAPAPALNNYIAGPNGQALAAAHALTAGRAIYLWGPAGCGRTHLLRGLSARPEAIYIDAARAAQSLRELAEADSTAPMPRLVAVDDVHRMDDARQAGLFALYNRWRESAATGRAFALAVSGDRAPMSLPLREDLRTRLGWDLVFRLDPLSDADKLAALTAQAAERGLQLAPEVINWMLTHHERDIRKLAALLDALDRYSLATGRPITIPLLRAMLADPHSQATLEHHHHHH”, the protein production is reported as “not failed”.
With “MNRRGGQTAFAAIARNERAIAAFIPYSSHLTDTTLITHGADLVRTWRVQGIAFESAEPELVSQRHEQLNGLWRAISCEQVALWIHCIRRKTQAGLDARYENPFCRALDASYNARLNARQAMTNEFYLTLVYRPGHAALGKRAHHGQAEVRRQLLAHVRRMDEIGSLIETTLRSHGENHEQAITVLGCETDSAGRRYSRTLTLLEFLLTGHWQPVRVPAGPVDAYLGSSRILAGAEMMELRAPTCRRYAQFIDFKEYGTHTEPGMLNALLYEDYEYVITHSFSAVGKRQALAYLQRQRAQLANVQDAAYSQIDDLAHAEDALVNGDFVIGEYHFSMMILGADPRQLRRDVSSAMTRIQERGFLATPVTLALDAAFYAQLPANWAYRSRKAMLTSRNFAGLCSFHNFYGGKRDGNPWGPALSLLSTPSGQPFYFNFHHSGLDEDCRGQMMLGNTRIIGQSGSGKTVLLNFLLCQLQKFRSADADGLTTIFFDKDRGAEICIRALDGQYLRIRDGEPTGFNPLQLPCTDRNVMFLDSLLAMLARAHDSPLTSAQHATLATAVRTVLRMPASLRRMSTLLQNITQATSEQRELVRRLGRWCRDDGAGGTGMLWWVFDNPNDCLDFSRPGNYGIDGTAFLDNAETRTPISMYLLHRMNEAMDGRRFVYLMDEAWKWIDDPAFAEFAGDQQLTIRKKNGLGVFSTQMPSSLLGARVAASLVQQCATEIYLPNPRADRAEYLDGFKCTETEYQLIRSMAEDSHLFLVKQGRQAVVAQLDLSGMDDELAILSGNARNLRCFEQALALTRERDPNDWIAVFHRLRREASAGLR” the protein production was “failed”.
With “MNRSDKWQQRVAQVAYRFNQQYQNQSLELPAEVQEMPIYREWISGILAGKIASPFWEMAQPQKNQHCLDIGCGVSFLIYPWRDWQAFFYGQDVSNVARDTLNSRGSQLNSKLFKGVELGAAHQLKYTLSYFDLAIATGFSCYFPLEYWTSVLQAVKRVLKPDGHFVFDILNAAHPQAEDWAVLETYLGAEVFLEPVTEWEKIINAAGAKVVGRQPGEFFDLYKLRLEHHHHHH” the protein production was “failed”.
With “MNRTKKRALTVRIVKTAISVALAAVIVVAMVLVNPQLSTNKLISSLMGYNHQSVDNGNASAGDADTNYYTADYTKENIRKAEDKLYDQIASEGTVLLKNDDNELPAQKGTTFSFFSANSVDGSSLTQGYLGTPETVTLKSAFTAAGFKVNETLWNYYESGAGKDYGLATGSVNYGDGEDFRINEAPLAALRKESGLLDSVRGTTPVYVLNRVVGEGRDMPRSMYNHADKQEDKEKSYIELDSTETEIIKYLNDNYKDVILLVKSSAAMELGWVADYPNIKAVVYSQNVTNALAKVFSGEVNPSGKTVDTFAADALASPAAQNFGSYQYYDGNGNATKYNYVDYAEGIYVGYKYYETRYEDKVLGQGNAGDYDYATEVVYPFGYGLSYTDFKWSDFSVATDGDDFVATVTVKNTGDVAGKDVVELYAQTPYTDYDKRNAVEKAAVNLVGYGKTAELEPGASETVKITFGKDQLKSYDYKGAKTYILDAGQYRFTAASDANQAINNILADKGKGMADGMTAEGDKAMVSSWTPENTDVDTTTFATDDATGKAIANLFDAASDPEVTYLTRSDWTGTFPKHYGESSGEINTWGNEINCKDSDGNNASCTWKKTASDELIKQLDGNDSGSTVDKSTITDTPTFGKSNGLKVSDMRGLDYDDEQWDKLLDELTEDDYNQLVYFSGYGVDYIKSVEKPFQTDADAATGWFYGGTGKAFPSIMMLTQTWNASLAEDLGVMMGNEALLGGANGWYAPAMNIHRTPFSGRNGEYYSEDGFMSGSMASLEVKGAATKGVYSYIKHFALNDQENHRGDRPGNFSVATWSNEQAIRETYLKPFDMCMHLGDMDMKTVVKKSDGTYENKTVTTPIAKGVMTSFNRLGATWTGGNYALIQQLLRDEWGFNGLIITDNANTSKFMSPYQMLEAGADIKLLNVSEDPTGEQLDFNDAATYHYARQAMHHLLYTVANSNCMNGALPGAGFTFYNQMKVMQIAFNAICGVILALLAFFSVWRWLPGTIKRVAARKETRAAKKAARKAAKA” the protein production was “failed”.
In the case of “MNSAALKSCLERENALVVEFLHALEAETEALMDRRAHESLQAAVQRKETLADDLAQLGAERDALLSGAGLASGPAGTDAAAAAHPELGPLWQALQANAAQAREHNQRNGTLIAVNLRHTQESLDALRQAAGTGAAATYDAQGRGKRGYSSA”, the protein production is reported as “not failed”.
For “MNSAPFLIFGGILAWLFVYFLRLRRFYAGEFLLGLFIFGIAITIQSIIQKASLVWFNVHAKLLISLWLGFLAGFIQEGIKYIFVKGMTPYKGAMVGLGFGIAEVILLAVVATLAGSSNVPLYLLVASATERFFAVVFHVASTSLLASSNLRIFLGVFTVHGLVDTLASYSQLSRVLNTPKVFLIEAVFGVFALFLLLISLPRIRVEKEEGPKW”, the protein production was “failed”.
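Note: failed if final PepcDB status was selected cloned or expressed and not failed if soluble or beyond.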
